Source: paper PMC3229523, “Identification of Lactoferricin B Intracellular Targets Using an Escherichia coli Proteome Chip” (PLoS ONE, 2011)
Ends that are not written are not given here. * marks the point of attachment. Biotin = O=C1N[C@H]2[C@H](CS[C@H]2CCCCC(=O)*)N1

What was measured:
Test in all cases: peptide or protein array; E. coli proteome chip: purified His-tagged proteins printed in duplicate on Fullmoon slides, blocked with 1% BSA; 10 nM N-terminal biotinylated LfcinB with 1% BSA, room temperature, 1 h; detected with DyLight 649-labeled streptavidin, ratio to DyLight 549-labeled anti-His antibody; ProCAT normalisation, local cut-off; triplicate chips
Conditions in all cases: both partners purified
XerB = target: T1, XerB (E. coli K-12, UniProt P68767 1-503)
T1 construct: XerB, E. coli K-12
T1 sequence (looked up): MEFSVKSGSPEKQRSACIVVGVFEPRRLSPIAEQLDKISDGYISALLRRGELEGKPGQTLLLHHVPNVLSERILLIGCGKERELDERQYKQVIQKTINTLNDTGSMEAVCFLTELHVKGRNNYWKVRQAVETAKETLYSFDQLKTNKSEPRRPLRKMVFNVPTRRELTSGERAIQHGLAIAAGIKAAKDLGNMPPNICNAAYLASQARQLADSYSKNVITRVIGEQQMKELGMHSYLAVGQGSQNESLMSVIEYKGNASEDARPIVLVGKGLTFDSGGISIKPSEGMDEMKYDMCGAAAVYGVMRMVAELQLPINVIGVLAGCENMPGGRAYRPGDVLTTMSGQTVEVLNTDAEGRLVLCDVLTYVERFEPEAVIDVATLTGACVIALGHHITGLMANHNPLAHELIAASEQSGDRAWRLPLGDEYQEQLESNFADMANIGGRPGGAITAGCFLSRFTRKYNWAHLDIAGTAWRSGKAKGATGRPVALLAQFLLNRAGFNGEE

HyaF = target: T2, HyaF (E. coli K-12, UniProt P19932 1-285)
T2 construct: HyaF, E. coli K-12
T2 sequence (looked up): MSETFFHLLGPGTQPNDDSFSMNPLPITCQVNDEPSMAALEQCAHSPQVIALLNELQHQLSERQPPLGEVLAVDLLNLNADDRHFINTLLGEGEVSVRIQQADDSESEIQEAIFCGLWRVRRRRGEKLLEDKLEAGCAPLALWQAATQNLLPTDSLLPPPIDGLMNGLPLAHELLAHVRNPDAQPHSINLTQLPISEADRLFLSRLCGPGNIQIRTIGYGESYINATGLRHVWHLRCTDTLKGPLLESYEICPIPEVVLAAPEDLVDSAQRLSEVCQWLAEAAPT

RhaR = target: T3, RhaR (E. coli K-12, UniProt P09378 1-282)
T3 construct: RhaR, E. coli K-12
T3 sequence (looked up): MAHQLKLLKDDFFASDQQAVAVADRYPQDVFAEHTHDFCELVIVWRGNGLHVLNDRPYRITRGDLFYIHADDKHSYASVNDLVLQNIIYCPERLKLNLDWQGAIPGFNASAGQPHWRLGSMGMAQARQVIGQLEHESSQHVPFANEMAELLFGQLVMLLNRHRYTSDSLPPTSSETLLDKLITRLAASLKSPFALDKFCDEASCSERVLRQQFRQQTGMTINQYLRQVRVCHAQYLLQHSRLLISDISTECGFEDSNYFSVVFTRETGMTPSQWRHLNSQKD

Hha = target: T4, Hha (E. coli K-12, UniProt P0ACE3 1-72)
T4 construct: Hha, E. coli K-12
T4 sequence (looked up): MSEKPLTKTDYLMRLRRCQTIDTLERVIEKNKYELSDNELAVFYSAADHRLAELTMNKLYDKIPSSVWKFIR

YijC = target: T5, YijC (E. coli K-12, UniProt P0ACU5 1-234)
T5 construct: YijC, E. coli K-12
T5 sequence (looked up): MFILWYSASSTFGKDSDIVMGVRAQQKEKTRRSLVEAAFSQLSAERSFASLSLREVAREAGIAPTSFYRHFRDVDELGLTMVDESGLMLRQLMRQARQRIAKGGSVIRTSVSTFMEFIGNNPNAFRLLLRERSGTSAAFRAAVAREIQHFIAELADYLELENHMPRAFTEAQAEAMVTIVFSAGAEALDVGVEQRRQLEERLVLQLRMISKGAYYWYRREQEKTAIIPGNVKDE

Smg = target: T6, Smg (E. coli K-12, UniProt P0A828 1-157)
T6 construct: Smg, E. coli K-12
T6 sequence (looked up): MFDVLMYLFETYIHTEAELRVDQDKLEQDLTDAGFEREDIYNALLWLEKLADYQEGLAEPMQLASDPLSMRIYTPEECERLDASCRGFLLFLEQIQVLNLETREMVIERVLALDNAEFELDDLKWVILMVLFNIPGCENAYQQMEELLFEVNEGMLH

YcaO = target: T7, YcaO (E. coli K-12, UniProt P75838 1-586)
T7 construct: YcaO, E. coli K-12
T7 sequence (P75838 whole entry): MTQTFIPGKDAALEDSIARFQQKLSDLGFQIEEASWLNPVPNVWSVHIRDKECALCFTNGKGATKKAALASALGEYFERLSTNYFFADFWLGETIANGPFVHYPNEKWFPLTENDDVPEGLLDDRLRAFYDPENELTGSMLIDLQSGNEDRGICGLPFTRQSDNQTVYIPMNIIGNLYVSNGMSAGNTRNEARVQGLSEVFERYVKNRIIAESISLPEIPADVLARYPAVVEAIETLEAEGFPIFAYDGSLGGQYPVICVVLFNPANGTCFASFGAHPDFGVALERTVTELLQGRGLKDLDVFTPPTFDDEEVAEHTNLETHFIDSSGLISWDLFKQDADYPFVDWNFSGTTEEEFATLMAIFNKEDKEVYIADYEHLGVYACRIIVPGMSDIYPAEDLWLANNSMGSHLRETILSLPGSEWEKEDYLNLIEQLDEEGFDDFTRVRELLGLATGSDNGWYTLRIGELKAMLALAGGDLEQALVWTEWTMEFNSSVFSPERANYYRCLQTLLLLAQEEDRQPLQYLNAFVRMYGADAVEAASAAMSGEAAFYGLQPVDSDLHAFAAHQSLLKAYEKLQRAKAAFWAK

Measured: binding result

B1: N-terminal biotinylated Lactoferricin B (peptide, UniProt P24627 36-60, looked up)
peptide: Biotin-FKCRRWQWRMKKLGAPSITCVRRAF
modifications: ends and bridges not checked
notes: lactoferricin B (LfcinB), cationic antimicrobial peptide of 25 amino acids; also called biotinylated LfcinB; biotin-labeled LfcinB; source: bought: Kelowna Inc
binds: all assays above
